One data set has as its system HT1080 cells. The data set is described as follows: Cell adhesion test (crystal violet colorimetric) on immobilised peptide, HT1080 cells. In kind it is cell-based, Human. As to conditions: microscopy, FIG. 6B. The protocol:
(A, B) Dose-dependent adhesion of normal human keratinocytes and cells of the HT1080 strain to the peptide KKLRIKSKEK (SEQ ID NO: 1) and to the LG4/5 protein. The peptide (A) and the protein LG4/5 (B) were immobilised on 96-well plates at the concentrations indicated on the abscissa. 6·10^4 cells were deposited in each well and the plates were incubated at 37° C. for 1 hour. After washing, the adherent cells were fixed and cell adhesion was measured as described in the methodology section. (C) Observation of normal human keratinocytes and HT1080 cells adhering to KKLRIKSKEK peptide (SEQ ID NO: 1) and to the LG4/5 protein. The observation was made with a Zeiss Axiovert 40 microscope equipped with a PlasDic interference unit. 50 μm bar.
(A) A decreasing range of peptides KKLRIKSKEK (SEQ ID NO: 1) and NSFMALYLSKGR (SEQ ID NO: 21) was immobilised in 96-well Microlon plates and the amount actually adsorbed was determined by protein assay with reference to a corresponding range of peptides made extemporaneously. The quantities of peptide tested are indicated on the abscissa of the graph. 6·10^4 cells were deposited in each well and the plates were incubated at 37° C. for 1 hour. After washing, the adherent cells were fixed and cell adhesion was measured as described in the methodology section. […]

The target in a further data set is T1, syndecan-1 (Homo sapiens, UniProt P18827).
T1 construct: endogenous in cells; host or cells: primary normal human keratinocytes from foreskin biopsies
T1 sequence (P18827 23-310): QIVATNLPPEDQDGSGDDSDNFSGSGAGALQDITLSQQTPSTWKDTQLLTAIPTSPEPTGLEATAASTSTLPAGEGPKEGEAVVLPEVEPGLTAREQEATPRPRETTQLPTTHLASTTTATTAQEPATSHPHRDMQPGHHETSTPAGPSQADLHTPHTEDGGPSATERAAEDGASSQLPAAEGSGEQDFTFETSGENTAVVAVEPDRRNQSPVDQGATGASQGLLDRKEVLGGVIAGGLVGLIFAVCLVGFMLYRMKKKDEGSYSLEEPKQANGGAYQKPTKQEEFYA
The data set is described as follows: Affinity chromatography (pull-down) with peptide-coated beads and syndecan-1 immunodetection. It counts as binding. As to conditions: lysate of normal human keratinocytes, 2 mg; immunoblotting with antibody H174. Here is the method: (A) A lysate of normal human keratinocytes was prepared as described in the Materials and Methods section and 2 mg of the lysate were incubated with neutravidin beads not coated or coated with the biotinylated peptides KKLRIKSKEK (SEQ ID NO: 1), PSGKPKSLP (SEQ ID NO: 19) and TSVTPKQSL (SEQ ID NO: 20). After washing, the material bound to the beads was digested with a mixture of heparitinase I and chondroitinase ABC to release the protein part of the syndecan-1 from the glycosaminoglycans. The samples were then analysed by SDS PAGE electrophoresis in an 8% acrylamide gel under non-reducing conditions and by immunoblotting with polyclonal anti-syndecan antibody H174. (B) A lysate of normal human keratinocytes was prepared and 2 mg of the lysate were incubated with neutravidin beads not coated or coated with the biotinylated peptide KKLRIKSKEK (SEQ ID NO: 1), or with sepharose beads coated with the whole LG4/5 fragment. After washing, the material bound to the beads was digested with a mixture of heparitinase I and chondroitinase ABC to release the protein part of the syndecan-1 from the glycosaminoglycans. The samples were then analysed by SDS PAGE electrophoresis in an 8% acrylamide gel under non-reducing conditions and by immunoblotting with polyclonal anti-syndecan antibody H174. (A, B) The position of molecular weight markers is shown on the left.
A series of point mutations was introduced into the peptide KKLRIKSKEK (SEQ ID NO: 1) by successively replacing each amino acid by an alanine (A). […] The samples were then analysed by SDS PAGE electrophoresis in an 8% acrylamide gel under non-reducing conditions and by immunoblotting with polyclonal anti-syndecan antibody H174. […]
A series of point or multiple mutations was introduced into the peptide KKLRIKSKEK (SEQ ID NO: 1) by replacing one or more lysines (K) by a glutamine (Q). […] The samples were then analysed by SDS PAGE electrophoresis in an 8% acrylamide gel under non-reducing conditions and by immunoblotting with polyclonal anti-syndecan antibody H174. […]
On the technique in general: In western blotting, separated proteins are transferred to a membrane and probed.

For data set [1], the system named is normal human keratinocytes. Briefly: Cell viability test (XTT). As to conditions: 100 to 1 μg/ml, medium renewed every two days (repeated twice). A general note: Tetrazolium assays rely on reduction of a dye to a coloured formazan, in cell work by metabolically active cells.
Experimental: NHKs were seeded in 96-well plates at 10^4 cells per well. After 24 hours, the culture media were removed and replaced with KBM-2 medium containing the concentrations of peptide [sequence] (SEQ ID NO: 1) (upper curve) or LG4/5 protein (lower curve) shown. After 48 h of contact at 37° C. the media were removed and this step was repeated twice. After 48 h of contact at 37° C. the media were replaced by XTT reagent. The plates were then placed in an incubator at 37° C. and the absorption was read after 6 hours. Controls with neither peptide nor protein were made on the same plate.
The effect of the peptide on the cell viability of the normal human keratinocytes was analysed using a colorimetric assay (XTT Cell Proliferation Kit, Roche Diagnostics, Meylan, France). A control with the LG4/5 protein was carried out in parallel. The chemical reaction of the test is based on the production of NADPH in living cells reducing yellow tetrazolium XTT salts to orange formazan salts. Absorption at 490 nm is measured using an ELISA plate reader. […] In this case, cell viability was calculated from the formula: % viability=(Abs. cells with peptide/Abs. control cells)×100.
The target of data set [2] is T2, syndecan-1 from lysates of normal human keratinocytes or normal human fibroblasts (human, UniProt P18827 23-310, limits assumed, carries heparan sulphate and chondroitin sulphate chains during binding; stripped with heparitinase I and chondroitinase ABC before the immunoblot).
T2 construct: Endogenous proteoglycan of cell lysates; also called syndecan-1 receptor
T2 sequence (looked up): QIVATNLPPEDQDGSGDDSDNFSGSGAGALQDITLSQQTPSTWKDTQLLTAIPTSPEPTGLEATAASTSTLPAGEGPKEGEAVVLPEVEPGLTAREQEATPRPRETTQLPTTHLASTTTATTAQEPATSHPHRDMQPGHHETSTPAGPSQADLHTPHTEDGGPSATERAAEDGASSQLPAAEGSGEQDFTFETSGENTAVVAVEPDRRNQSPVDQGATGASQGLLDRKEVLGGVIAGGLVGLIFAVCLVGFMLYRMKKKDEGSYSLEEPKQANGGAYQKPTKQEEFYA
Briefly: pull-down from normal human keratinocyte lysate, immunoblot with H174. The protocol:
To identify the nature of the cell receptor binding to the peptide […] (SEQ ID NO: 1), affinity chromatography or 'pull-down' assays were performed by incubating beads coated with peptides with cell lysates. Lysates of primary keratinocytes or fibroblasts were made using a lysis buffer of 1% triton X-100 in PBS, pH 7.5, containing N-ethylmaleimide and phenylmethylsulphonylfluoride 50 mM. The wild type peptide […] (SEQ ID NO: 1) and the mutated peptides were bound to biotin at their amino-terminal ends and 100 µg of each biotinylated peptide were attached to agarose-neutravidin beads (Perbio Science, Bezons, France) by incubation for 16 hours at +4° C. The beads were then incubated with 2 mg of cell lysate for 2 hours at +4° C. After washing 3 times with the lysis buffer, the beads were transferred into a digestion buffer (20 mM sodium acetate, 5 mM CaCl2, pH 7.0) containing 8 mU/ml heparitinase I and 50 mU/ml of chondroitinase ABC (Seikagaku America, Coger, Paris, France) for 2 hours at 25° C. This treatment strips the protein part of syndecan-1 of glycosaminoglycans, making it easier to analyse by immunoblotting. The samples were then analysed by SDS PAGE electrophoresis in an 8% acrylamide gel under non-reducing conditions and by immunoblotting with polyclonal anti-syndecan antibody H174 (Santa Cruz Biotechnology, Le Perray en Yvelines, France).

The values that follow come from patent publication US9260507B2, “Peptide promoting cell adhesion and migration” (Symatese, priority 2009, dated 2016).

Ends that are not written are not given here. * marks the point of attachment. Biotin = O=C1N[C@H]2[C@H](CS[C@H]2CCCCC(=O)*)N1

Turning to NSFMALYLSKGR, the “Morphology of HT1080 cells adhering to the peptide” value in the data set on HT1080 cells was “no cytoplasmic prolongations were noted”.
As for “KKLRLRSKER [M2, from the murine laminin alpha3 chain]”, in the data set with syndecan-1, the “Binding of syndecan-1 to the biotinylated peptide on beads” value is “proved capable of binding syndecan-1”.
Same read-out and setting: under TSVTPKQSL stands “did not retain the syndecan-1”; under PSGKPKSLP, “did not retain the syndecan-1”.
With KKLRIKSKEK [KKLRIKSKEK], the “Cytotoxic effect on epidermal keratinocytes (percentage of viable cells vs controls)” value in data set [1] is given as “neither peptide KKLRIKSKEK (SEQ ID NO: 1) nor protein LG4/5 has any long-term cytotoxic effect”.
As to Biotin-AKLRIKSKEK [mutated peptide A1 (alanine in place of amino acid 1 of …)], the binding result in data set [2] is recorded as “no binding”.
On the same count and under the same terms, then PSGKPKSLP (also: biotinylated) [biotinylated peptide PSGKPKSLP (SEQ ID NO: 19)], with “no binding”; and Biotin-KKLAIKSKEK [mutated peptide A4 (alanine in place of amino acid 4 of …)], with “no binding”; and TSVTPKQSL (also: biotinylated) [biotinylated peptide TSVTPKQSL (SEQ ID NO: 20)], with “no binding”.
Biotin-KKLRIKAKEK [mutated peptide A7 (alanine in place of amino acid 7 of …)]: in data set [2], the binding result is given as “no binding”.
